Assay [1] deals with YFP(C)·Sec22p (S. cerevisiae) (UniProt P22214). The assay is described as follows: split reporter (BiFC, NanoBiT); BiFC in living Δosh1-3 yeast cells (Y36), compared with wt (Y2).
Another assay has as its target T1, His·Osh3p (S. cerevisiae, UniProt P38713 1-996).
T1 construct: Osh3p, PCR amplified and cloned into vector 1509; also called His6-tagged Osh3p; source: bacterial production, purified (Ni-NTA agarose)
T1 sequence (looked up): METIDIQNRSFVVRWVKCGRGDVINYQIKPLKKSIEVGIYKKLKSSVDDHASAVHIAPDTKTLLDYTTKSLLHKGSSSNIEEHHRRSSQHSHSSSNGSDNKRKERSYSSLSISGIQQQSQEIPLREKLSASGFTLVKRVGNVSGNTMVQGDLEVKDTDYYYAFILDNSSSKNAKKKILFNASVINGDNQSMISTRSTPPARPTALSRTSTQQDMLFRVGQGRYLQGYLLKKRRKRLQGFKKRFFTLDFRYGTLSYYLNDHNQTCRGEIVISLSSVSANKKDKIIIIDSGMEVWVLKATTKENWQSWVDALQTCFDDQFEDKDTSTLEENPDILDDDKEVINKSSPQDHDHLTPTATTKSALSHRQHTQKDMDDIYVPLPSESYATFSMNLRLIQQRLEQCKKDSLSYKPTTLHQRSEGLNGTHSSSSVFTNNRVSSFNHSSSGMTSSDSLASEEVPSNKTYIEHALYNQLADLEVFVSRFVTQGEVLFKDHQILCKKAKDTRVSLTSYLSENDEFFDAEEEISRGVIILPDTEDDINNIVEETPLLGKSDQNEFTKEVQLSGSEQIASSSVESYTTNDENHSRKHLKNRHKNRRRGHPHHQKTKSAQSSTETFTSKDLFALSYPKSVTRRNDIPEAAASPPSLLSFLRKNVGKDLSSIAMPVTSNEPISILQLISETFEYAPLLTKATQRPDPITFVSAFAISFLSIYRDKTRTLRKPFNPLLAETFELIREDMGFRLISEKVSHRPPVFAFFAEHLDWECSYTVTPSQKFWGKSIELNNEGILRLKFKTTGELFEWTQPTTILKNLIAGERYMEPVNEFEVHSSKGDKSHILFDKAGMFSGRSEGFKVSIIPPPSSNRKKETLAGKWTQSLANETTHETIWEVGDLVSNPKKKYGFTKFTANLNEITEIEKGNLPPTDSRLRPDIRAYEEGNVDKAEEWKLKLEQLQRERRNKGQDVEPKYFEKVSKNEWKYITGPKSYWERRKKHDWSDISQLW
The assay is described as follows: pull-down; 2 μM GST·Sec9p(421–651) or GST on Glutathione-Agarose, equal molar His·Osh3p, 100 µl PBS + 0.1% Triton X-100, 1 h, room temperature; SDS-PAGE, Coomassie. The conditions noted are these: both partners purified.

Assay [2] concerns the target T2, Venus(C)·VAPA (lentiviral) (human), Q9P0L0.
T2 chain: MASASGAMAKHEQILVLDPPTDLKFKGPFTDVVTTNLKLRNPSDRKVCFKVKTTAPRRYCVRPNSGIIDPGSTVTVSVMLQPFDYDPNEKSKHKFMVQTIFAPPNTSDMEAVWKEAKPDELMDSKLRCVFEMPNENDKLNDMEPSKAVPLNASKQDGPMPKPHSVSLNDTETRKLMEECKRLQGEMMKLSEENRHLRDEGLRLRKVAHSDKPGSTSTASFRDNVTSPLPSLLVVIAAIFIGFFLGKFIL
As to the kind of experiment: split reporter (BiFC, NanoBiT); BiFC of Venus(N)·VAPA and Venus(C)·VAPA in wt mouse hippocampal neurons, lentiviral; scrambled or ORP2 shRNA; infected DIV 3 and fixed DIV 7, or infected DIV 7 and fixed DIV 14. The conditions noted are these: remark: other sources report otherwise.

The text below walks through data of paper PMC7904734, “ORP/Osh mediate cross-talk between ER-plasma membrane contact site components and plasma membrane SNAREs” (Cellular and Molecular Life Sciences: CMLS, 2020).

Sequence of YFP(C)·Sec22p (S. cerevisiae) (P22214 whole entry): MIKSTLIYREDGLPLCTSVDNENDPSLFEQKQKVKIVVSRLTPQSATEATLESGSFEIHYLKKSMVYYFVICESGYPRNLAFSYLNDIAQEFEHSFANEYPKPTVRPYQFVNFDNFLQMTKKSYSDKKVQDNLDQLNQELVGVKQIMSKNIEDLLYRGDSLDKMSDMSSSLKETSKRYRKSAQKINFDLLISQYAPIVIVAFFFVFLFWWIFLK

Molecule “YFP(N)·Sso1p (from UniProt P32867 1-290) (natural protein)” gave a reduction of the BiFC signal in the Δosh1-3 strain against wt in assay [1] of 19%.

B1: GST·Sec9p(421–651) (domain or fragment, S. cerevisiae, UniProt P40357 421-651, looked up)
chain: EEDEAVDEIKQEIKFTKQSSVASTRNTLKMAQDAERAGMNTLGMLGHQSEQLNNVEGNLDLMKVQNKVADEKVAELKKLNRSILAVHVSNPFNSKRRRREREEQLKNRKIEEKLMREQTSQQLSQSTQRIEGAMNANNNISEVRERYQRKNVLEKAKRYQFENDEEDDEMELEIDRNLDQIQQVSNRLKKMALTTGKELDSQQKRLNNIEESTDDLDINLHMNTNRLAGIR
notes: cut out of 1530 and cloned into 977
Take B1: the binding result in the assay with His·Osh3p is recorded as “binds”.

B2: Venus(N)·VAPA (lentiviral), Q9P0L0 1-249 (natural protein)
chain: MASASGAMAKHEQILVLDPPTDLKFKGPFTDVVTTNLKLRNPSDRKVCFKVKTTAPRRYCVRPNSGIIDPGSTVTVSVMLQPFDYDPNEKSKHKFMVQTIFAPPNTSDMEAVWKEAKPDELMDSKLRCVFEMPNENDKLNDMEPSKAVPLNASKQDGPMPKPHSVSLNDTETRKLMEECKRLQGEMMKLSEENRHLRDEGLRLRKVAHSDKPGSTSTASFRDNVTSPLPSLLVVIAAIFIGFFLGKFIL
With B2, in assay [2], the fold reduction of VAPA-VAPA BiFC patches in ORP2 KD cells (transduced DIV 3, fixed DIV 7) worked out at 1.7 fold and the fold reduction of VAPA-VAPA BiFC patches in ORP2 KD cells (transduced DIV 7, fixed DIV 14) worked out at 2.3 fold.
